According to PMC12153317:

Target: specific HAs not engaged in ELISA (soluble HA ectodomains) (influenza virus)
Assay: ELISA

## CR8071
  Kd: 0.35 nM
